Results: patent US20150139990A1 (DAINIPPON SUMITOMO PHARMA, published 2015)
Where a chain is given by its changes, count along the chain named. Names may count otherwise. Each block holds one binder with its values, some of them ahead of it.

Key:
human CD81 mutant V169A = biological target: T1, human CD81 mutant V169A (human, UniProt P60033 1-236, limits assumed); assay: ELISA
T1 construct: as m30; not shown: C-terminal V5 and 6xHis tags
T1 sequence: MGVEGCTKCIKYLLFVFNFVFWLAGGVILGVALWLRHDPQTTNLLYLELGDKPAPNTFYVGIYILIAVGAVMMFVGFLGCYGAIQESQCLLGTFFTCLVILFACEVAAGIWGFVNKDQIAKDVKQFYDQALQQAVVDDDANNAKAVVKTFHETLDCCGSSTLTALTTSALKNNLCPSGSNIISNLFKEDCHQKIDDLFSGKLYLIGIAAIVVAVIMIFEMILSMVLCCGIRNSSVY

human CD81 mutant I194A = biological target: T2, human CD81 mutant I194A (human, UniProt P60033 1-236, limits assumed); assay: ELISA
T2 construct: as m30; not shown: C-terminal V5 and 6xHis tags
T2 sequence: T1 sequence with A169V, I194A

human CD81 mutant A164T = biological target: T3, human CD81 mutant A164T (human, UniProt P60033 1-236, limits assumed); assay: ELISA
T3 construct: as m30; not shown: C-terminal V5 and 6xHis tags
T3 sequence: T1 sequence with A164T, A169V

human CD81 mutant V135A = biological target: T4, human CD81 mutant V135A (human, UniProt P60033 1-236, limits assumed); assay: ELISA
T4 construct: as m30; not shown: C-terminal V5 and 6xHis tags
T4 sequence: T1 sequence with V135A, A169V

human CD81 mutant L165A = biological target: T5, human CD81 mutant L165A (human, UniProt P60033 1-236, limits assumed); assay: ELISA
T5 construct: as m30; not shown: C-terminal V5 and 6xHis tags
T5 sequence: T1 sequence with L165A, A169V

human CD81 mutant S168A = biological target: T6, human CD81 mutant S168A (human, UniProt P60033 1-236, limits assumed); assay: ELISA
T6 construct: as m30; not shown: C-terminal V5 and 6xHis tags
T6 sequence: T1 sequence with S168A, A169V

human CD81 mutant V169L = biological target: T7, human CD81 mutant V169L (human, UniProt P60033 1-236, limits assumed); assay: ELISA
T7 construct: as m30; not shown: C-terminal V5 and 6xHis tags
T7 sequence: T1 sequence with A169L

human CD81 mutant A164V = biological target: T8, human CD81 mutant A164V (human, UniProt P60033 1-236, limits assumed); assay: ELISA
T8 construct: as m30; not shown: C-terminal V5 and 6xHis tags
T8 sequence: T1 sequence with A164V, A169V

human CD81 mutant S168T = biological target: T9, human CD81 mutant S168T (human, UniProt P60033 1-236, limits assumed); assay: ELISA
T9 construct: as m30; not shown: C-terminal V5 and 6xHis tags
T9 sequence: T1 sequence with S168T, A169V

[1] = biological target: T10, human CD81 on CD81-expressing cells (Jurkat E6.1, human PBMC, Ramos) (human, UniProt P60033 1-236); assay: cell-based or functional assay
T10 sequence: T1 sequence with A169V

[2] = biological target: T10, human CD81 on CD81-expressing cells …; assay: FMAT on CD81-expressing and non-expressing cells
From the text: A complete human antibody library n-CoDeR (Nature Biotechnol. 18: 852-856, 2000; WO98/32845) was screened for specific binding with human CD81, using human CD81 protein and human CD9 protein having a homology with CD81, or human CD81-expressing and -non-expressing cells to obtain human antibody fragments (scFv) specifically binding with human CD81. First, phages bound to biotinylated CD81 protein in the presence of competitive CD9 protein were recovered using streptoavidin-labeled magnetic beads. Unbound phages were washed out and the bound phages were eluted by trypsin treatment. Panning was carried out three times, and the selected phage library was expressed as an antibody fragment in E. coli. […] FMAT is performed by adding antibody fragments to the cells immobilized on the wells of 384-well culture plate, and detecting its binding using a fluorescent-labeled anti-scFv antibody. As a result of the screening, two human CD81-specific human antibody fragments were selected. The nucleotide sequences (scFv-002-A07: SEQ ID NO:33, scFv-005-001: SEQ ID NO:35) and the deduced amino acid sequences (scFv-002-A07: SEQ ID NO:34, scFv-005-001: SEQ ID NO:36) of these fragments were determined by sequencing.

relative binding affinity (human CD81 mutant V169A): < 20%
relative binding affinity (human CD81 mutant I194A): < 20%
relative binding affinity (human CD81 mutant A164T): < 20%
relative binding affinity (human CD81 mutant V135A): < 20%
relative binding affinity (human CD81 mutant L165A): < 20%
relative binding affinity (human CD81 mutant S168A): < 20%
relative binding affinity (human CD81 mutant V169L): < 20%
relative binding affinity (human CD81 mutant A164V): < 20%
relative binding affinity (human CD81 mutant S168T): < 20%
Jurkat chemotaxis (% of control IgG4) at 0.001 µg/mL [1]: 102%
Jurkat chemotaxis (% of control IgG4) at 0.01 µg/mL [1]: 79%
Jurkat chemotaxis (% of control IgG4) at 0.1 µg/mL [1]: 27%
Jurkat chemotaxis (% of control IgG4) at 1 µg/mL [1]: 5%
Jurkat chemotaxis (% of control IgG4) at 10 µg/mL [1]: 7%
B1: 002-F05 (antibody, human IgG4 S228P, lambda, V domains shown)
VH: EVQLLESGGGLVQPGGSLRLSCAASGFTFSSNYMSWVRQAPGKGLEWVSYISSSSTYTDYADSVKGRFTISRDNSKNTLYLQMNSLRAEDTAVYYCARYSYGRDDFDYWGQGTLVTVSS
VL: QSVLTQPASASGTPGQRVTISCTGSTSNIGAGYDTHWYQQLPGTAPKLLIYGNSNRPSGVPDRFSGSKSGTSASLAISGLRSEDEADYYCQSYDTNLNVWVFGGGTKLTVLG
notes: IgG4 S228P

binding result [2]: binds
B2: scFv-002-A07 (scFv)
scFv: EVQLLESGGGLVQPGGSLRLSCAASGFTFSSNYMSWVRQAPGKGLEWVSYISSSSTYTDYADSVKGRFTISRDNSKNTLYLQMNSLRAEDTAVYYCARYSYGRDNFDYWGQGTLVTVSSGGGGSGGGGSGGGGSQSVLTQPPSASGTPGQRVTISCTGSTSNIGAGYDTHWYQQLPGTAPKLLIYGNSNRPSGVPDRFSGSKSGTSASLAISGLRSEDEADYYCQSYDTNLSVWVFGGGTKLTVLGEQKLISEEDLSGSAAAHHHHHH
notes: antibody fragment from the n-CoDeR library, expressed in E. coli
